Data as given in the supplement of paper PMC10126150.
± gives the standard deviation of the averaged measurements.

Each sequence was assayed on ATP (assay: switch fluorescence ratio, 500 uM ATP over buffer (Cy3 cluster intensity, sum of 5 cycles each) (fold (ratio)); higher = stronger signal-on switching upon ATP binding; sequences stand for … in TCGTCGGCAGCGTCAGATGTGTATAAGAGACAGTTTTTTTTTTTTTTTTTTTTTTTTT…TC). Details: aptamer strand: ATP DNA aptamer (quencher-CACCTGGGGGAGTATTGCGGAGGAAGG + anchor), 100 nM annealed; ATP concentration: 500 uM.
Outline: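 Five buffer/ATP imaging cycles were run on Cy3-labelled switching-strand clusters on a modified Illumina MiSeq flow-cell, with NaOH stripping and re-annealing between cycles. In each cycle, clusters annealed to 100 nM quencher-labelled ATP aptamer were imaged in selection buffer, then after 15 min with 500 uM ATP at 22 °C. Per cluster, the fluorescence ratio is summed target-cycle over summed buffer-cycle Cy3 intensity, averaged per switch-domain sequence. Only clusters within 100-1000 RFU were kept.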
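Further: ATP exposure 15 min at 22 °C before imaging.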

Sequence | switch fluorescence ratio
TATAGGTTGG | 1.02 ± 0.031
TATAGTCTTT | 0.983 ± 0.015
TATATAGGGG | 1 ± 0.026
TATATATGAA | 1.01 ± 0.015
TATATCTATA | 1.02 ± 0.015
TATATGCCTT | 1.01 ± 0.036
TATATGCGTG | 0.9932 ± 0.0039
TATATTACAG | 1.05 ± 0.028
TATATTATGA | 0.999 ± 0.023
TATATTTTTC | 1.15 ± 0.24
TATCAAAGGG | 1.023 ± 0.0067
TATCAAAGGT | 1.01 ± 0.025
TATCACACTG | 1.09 ± 0.12
TATCACGGCG | 0.998 ± 0.013
TATCACGGCT | 0.969 ± 0.0099
TATCACTGTT | 1.05 ± 0.079
TATCAGAAGC | 1.012 ± 0.01
TATCAGAGGT | 1.03 ± 0.036
TATCAGATTA | 0.998 ± 0.033
TATCAGCTGA | 0.9974 ± 0.0036
TATCAGGGG | 1.11 ± 0.054
TATCAGTAGT | 1.016 ± 0.0028
TATCAGTGAT | 1.02 ± 0.071
TATCATAGCG | 1.01 ± 0.046
TATCATGGGG | 0.996 ± 0.031

Sequence | switch fluorescence ratio
TATCCCCCGG | 1.95 ± 1.2
TATCCGAACG | 1.4467 ± 0.00019
TATCCGGGTG | 3.23 ± 0.25
TATCCTGGCG | 1.03 ± 0.057
TATCGAAGGC | 0.982 ± 0.022
TATCGCTGGT | 1.04 ± 0.023
TATCGGATGG | 1.0207 ± 0.00094
TATCGGGGTG | 0.996 ± 0.053
TATCGGGGTT | 0.98 ± 0.046
TATCGGGTGG | 1.01 ± 0.097
TATCGGTATT | 1 ± 0.039
TATCGGTCCG | 1.01 ± 0.024
TATCTATCAT | 0.969 ± 0.024
TATCTATTTT | 0.964 ± 0.011
TATCTCCAAT | 1.12 ± 0.052
TATCTCGGGA | 0.988 ± 0.02
TATCTGAACG | 1.01 ± 0.037
TATCTGCTAC | 3.67 ± 0.7
TATCTGGGTG | 1.06 ± 0.029
TATCTGGGTT | 1.06 ± 0.079
TATCTTTTCT | 0.968 ± 0.014
TATGAAACCG | 1.02 ± 0.086
TATGACGCGG | 0.9833 ± 0.0053
TATGAGAGCC | 1.02 ± 0.026
TATGAGGGCA | 1.02 ± 0.013

Sequence | switch fluorescence ratio
TATGAGGGCG | 1.04 ± 0.041
TATGAGGGGC | 0.967 ± 0.013
TATGAGGTCT | 1.02 ± 0.032
TATGATAGCC | 1.04 ± 0.037
TATGATAGGT | 0.9914 ± 0.0013
TATGATGGGC | 0.9577 ± 0.0057
TATGATTACG | 1.03 ± 0.013
TATGATTTGC | 1 ± 0.012
TATGCACTGA | 1.06 ± 0.024
TATGCATTGT | 1.01 ± 0.017
TATGCATTTC | 1.08 ± 0.0049
TATGCGAGAC | 2.3 ± 0.15
TATGCGTTTT | 0.98 ± 0.013
TATGCTTATT | 1 ± 0.024
TATGCTTTGG | 0.98 ± 0.03
TATGGAGTGG | 1 ± 0.039
TATGGATGGC | 1.01 ± 0.058
TATGGATTAT | 1.02 ± 0.081
TATGGCCTGG | 1.04 ± 0.015
TATGGGAGGG | 0.952 ± 0.022
TATGGGAGGT | 1.04 ± 0.029
TATGGGCAGC | 1.03 ± 0.018
TATGGGCATT | 0.998 ± 0.016
TATGGGCGCG | 1.11 ± 0.23
TATGGGGTTT | 1.01 ± 0.031

Sequence | switch fluorescence ratio
TATGGGTGAT | 1.01 ± 0.034
TATGGGTGTG | 1.02 ± 0.037
TATGGGTTTT | 1.02 ± 0.037
TATGGTGAGC | 1.01 ± 0.023
TATGGTTAAT | 0.982 ± 0.016
TATGTAAGGA | 0.985 ± 0.041
TATGTAATGT | 0.993 ± 0.031
TATGTACACA | 1.02 ± 0.059
TATGTACGGG | 1.0612 ± 0.00037
TATGTACTAG | 1.049 ± 0.0089
TATGTAGATT | 1.017 ± 0.01
TATGTAGTAG | 0.971 ± 0.042
TATGTAGTCG | 1.02 ± 0.038
TATGTATATA | 1.01 ± 0.079
TATGTATCTA | 1.02 ± 0.043
TATGTATTAT | 0.994 ± 0.062
TATGTCATGT | 1.02 ± 0.011
TATGTCATTT | 0.957 ± 0.011
TATGTCCAGT | 1.0009 ± 0.00027
TATGTCTCTT | 1.02 ± 0.021
TATGTCTTTA | 1 ± 0.017
TATGTGAGCA | 0.99 ± 0.014
TATGTGGCT | 1.017 ± 0.0043
TATGTGGGAA | 1.01 ± 0.062
TATGTGGTTG | 0.99 ± 0.016
